According to patent US20040202655A1 (published 2004):
Several values for one entry are separate records, joined by “and”; a condition that tells them apart may be missing. Identical values can stand only once.

How the values were obtained:
[1] = target: T1, human IGF-I receptor on cells (NIH-3T3 fibroblasts expressing the human IGF-IR; DU145 cells) (human, UniProt P08069 31-1367); assay: cell-based or functional assay
[2] = target: T1, human IGF-I receptor on cells (NIH-3T3 …); assay: cell-based or functional assay; remark: listed apart in the source
[3] = target: T1, human IGF-I receptor on cells (NIH-3T3 …); assay: competition with 125I-IGF-II, NIH-3T3 cells expressing human IGF-1R, 37 C
[4] = target: T1, human IGF-I receptor on cells (NIH-3T3 …); assay: competition with 125I-IGF-II, NIH-3T3 cells expressing human IGF-1R, 4 C
Description: (§1) NIH-3T3 fibroblasts expressing the human IGF-IR, or NIH-3T3 non-transfected fibroblasts were plated at 6×10⁴ cells per well in 0.5 ml of DMEM (Gibco, #11960-044) supplemented with 10% heat-inactivated fetal bovine serum (Gibco, #16140-071), 2 mM L-glutamine (Gibco, #25030-081) and 50 U/ml penicillin-streptomycin (Gibco, #15070-063). The NIH-3T3 cells were used as a control for non-specific cell binding. The plates were incubated at 37° C./5% CO₂ for 24 hours to allow cells to attach and become 80-90% confluent. The overlying media was then replaced with 0.5 ml per well of starvation media consisting of DMEM, 20 mM Hepes (Gibco, #15630-080), 2 mM L-glutamine and 0.1% bovine serum albumin (Equitech-Bio, protease-free, Kerrville, Tex.) and the plates were incubated at 37° C., 5% CO₂ overnight. All subsequent binding steps were conducted at 4° C. Test antibodies were diluted in ice-cold starvation media to the desired final concentration and 100 μl added per well. All samples were performed in duplicate. […] Cell monolayers were washed three times with ice-cold PBS (Gibco, #14040-117) and cells and associated radioactivity were released by adding 0.5ml 2% sodium dodecyl sulfate/0.2N NaOH to each well and heating the plates at 60° C. for 15 minutes. Lysate associated radioactivity was quantitated by gamma scintillation spectrometry. Alternatively, the same described experiment was performed with preincubation with the test antibodies at 37° C. for 10 minutes, followed by 10 minutes incubation at 37° C. after addition of 400 pM of the iodinated radioligand.

[5] = target: T1, human IGF-I receptor on cells (NIH-3T3 …); assay: competition with 125I-IGF-I, NIH-3T3 cells expressing human IGF-1R, 37 C
Description: as §1, with “Alternatively, the same described experiment was performed with preincubation with the test antibodies at 37° C. for 10 minutes, followed by 10 minutes incubation at 37° C. after addition of 400 pM of the iodinated radioligand.” left out

[6] = target: T1, human IGF-I receptor on cells (NIH-3T3 …); assay: saturation binding of 125I-labelled IgG to NIH-3T3 cells expressing human IGF-1R, on ice; unit inferred
Description: The mixtures were in incubated on ice for 70 min. After the incubation the tubes were centrifuged at 1000 rpm for 1 min and the supernatant fractions were removed by aspiration. The cell pellets were washed with 50 μl of ice-cold Hanks' Balanced Salt Solution containing 0.2% BSA and 20 mM Hepes and centrifuged at 1000 rpm for […] and the supernatant fractions were removed by aspiration. The resulting cell pellets were counted in Perkin Elmer Cobra Quantum gamma counter. […] The specific binding was obtained by subtracting the non-specific binding counts from the total binding counts in corresponding pairs.

[7] = target: T1, human IGF-I receptor on cells (NIH-3T3 …); assay: competition with 125I-IGF-I, NIH-3T3 cells expressing human IGF-1R, 4 C
Description: as §1

IC50 (nM), IGF-1 dependent proliferation of NIH-3T3/hIGF-1R cells (BrdU ELISA) [1]: 3.4 nM and 2.6 nM
Antagonist Assay IC50 (nM), IGF-I-induced IGF-1R tyrosine phosphorylation (ELISA) [2]: 2.4 nM and 3.3 nM
IC50 [3]: 3 nM and 2.6 nM
IC50 [4]: > 75 nM
IC50 [5]: 1.9 nM
Kd [6]: 2.24 nM
IC50 [7]: > 100 nM
B1: PINT-11A4 IgG (antibody, V domains shown)
VH: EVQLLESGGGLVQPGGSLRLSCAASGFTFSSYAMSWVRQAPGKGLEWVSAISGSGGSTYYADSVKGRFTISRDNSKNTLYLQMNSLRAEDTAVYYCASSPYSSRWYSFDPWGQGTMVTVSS
VL: LSYELTQPPSVSVSPGQTATITCSGDDLGNKYVSWYQQKPGQSPVLVIYQDTKRPSGIPERFSGSNSGNIATLTISGTQAVDEADYYCQVWDTGTVVFGGGTKLTVLG
